From patent US20220275103A1 (CENTRICSBIO, published 2022)

T1: mouse CD300c antigen (mouse)
T1 sequence (A2A7V7 whole entry, looked up): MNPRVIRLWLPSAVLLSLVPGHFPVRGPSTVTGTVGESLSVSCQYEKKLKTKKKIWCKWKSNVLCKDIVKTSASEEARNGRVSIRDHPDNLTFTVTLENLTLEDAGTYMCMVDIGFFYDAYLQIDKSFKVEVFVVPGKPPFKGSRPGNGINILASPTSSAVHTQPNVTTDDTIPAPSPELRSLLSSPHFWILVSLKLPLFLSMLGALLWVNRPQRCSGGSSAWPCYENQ

T2: CD276[B7-H3] (Sino Biological) (UniProt Q5ZPR3 29-461, limits assumed)
T2 sequence (looked up): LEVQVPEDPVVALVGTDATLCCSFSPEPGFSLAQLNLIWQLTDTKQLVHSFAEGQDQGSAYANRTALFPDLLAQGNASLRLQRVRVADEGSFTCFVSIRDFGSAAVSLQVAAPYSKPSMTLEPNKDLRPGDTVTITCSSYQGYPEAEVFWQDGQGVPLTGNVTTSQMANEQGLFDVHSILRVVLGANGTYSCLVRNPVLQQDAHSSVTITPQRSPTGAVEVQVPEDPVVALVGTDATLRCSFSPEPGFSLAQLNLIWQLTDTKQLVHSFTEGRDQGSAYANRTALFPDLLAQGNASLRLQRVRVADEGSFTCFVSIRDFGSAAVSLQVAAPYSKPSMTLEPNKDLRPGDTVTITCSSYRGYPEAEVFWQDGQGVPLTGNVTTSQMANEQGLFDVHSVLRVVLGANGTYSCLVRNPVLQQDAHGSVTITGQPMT

T3: CD273[PD-L2] (Sino Biological) (UniProt Q9BQ51 20-219, limits assumed)
T3 sequence (looked up): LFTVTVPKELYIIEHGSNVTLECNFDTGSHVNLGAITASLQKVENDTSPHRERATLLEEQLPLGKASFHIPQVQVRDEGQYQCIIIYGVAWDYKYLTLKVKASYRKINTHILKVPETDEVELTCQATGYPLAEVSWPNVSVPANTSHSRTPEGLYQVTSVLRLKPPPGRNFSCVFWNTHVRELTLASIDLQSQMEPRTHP

T4: CD80[B7-1] (Sino Biological) (UniProt P33681 35-242, limits assumed)
T4 sequence (looked up): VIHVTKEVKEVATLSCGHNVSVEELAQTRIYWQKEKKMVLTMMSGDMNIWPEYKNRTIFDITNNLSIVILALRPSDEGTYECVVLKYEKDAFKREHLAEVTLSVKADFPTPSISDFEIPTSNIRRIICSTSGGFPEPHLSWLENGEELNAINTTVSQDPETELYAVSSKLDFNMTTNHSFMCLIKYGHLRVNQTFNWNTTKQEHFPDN

T5: CD300a antigen (12449-H08H, Sino Biological) (UniProt Q9UGN4 18-180)
T5 sequence (looked up): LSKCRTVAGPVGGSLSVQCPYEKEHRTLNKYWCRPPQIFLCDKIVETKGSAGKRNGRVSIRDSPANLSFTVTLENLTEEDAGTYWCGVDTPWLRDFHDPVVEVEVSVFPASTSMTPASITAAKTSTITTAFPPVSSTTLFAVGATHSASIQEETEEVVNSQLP

T6: ICOS Ligand[B7-H2] (Sino Biological) (UniProt O75144 19-258, limits assumed)
T6 sequence (looked up): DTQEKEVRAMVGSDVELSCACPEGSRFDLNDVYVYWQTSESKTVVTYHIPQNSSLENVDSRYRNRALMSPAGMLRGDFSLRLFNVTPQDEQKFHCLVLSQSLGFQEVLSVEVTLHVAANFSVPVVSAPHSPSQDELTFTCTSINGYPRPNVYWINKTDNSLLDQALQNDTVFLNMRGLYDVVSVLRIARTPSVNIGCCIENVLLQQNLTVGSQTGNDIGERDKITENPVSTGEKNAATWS

T7: CD86[B7-2] (Sino Biological) (UniProt P42081 24-247, limits assumed)
T7 sequence (looked up): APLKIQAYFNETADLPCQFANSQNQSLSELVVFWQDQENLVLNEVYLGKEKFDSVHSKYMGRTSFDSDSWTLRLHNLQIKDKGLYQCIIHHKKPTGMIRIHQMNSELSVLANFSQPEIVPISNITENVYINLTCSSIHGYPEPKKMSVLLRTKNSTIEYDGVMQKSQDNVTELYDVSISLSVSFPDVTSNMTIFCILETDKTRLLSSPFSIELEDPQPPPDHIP

T8: B7-H4 (Sino Biological) (UniProt Q7Z7D3 25-258, limits assumed)
T8 sequence (looked up): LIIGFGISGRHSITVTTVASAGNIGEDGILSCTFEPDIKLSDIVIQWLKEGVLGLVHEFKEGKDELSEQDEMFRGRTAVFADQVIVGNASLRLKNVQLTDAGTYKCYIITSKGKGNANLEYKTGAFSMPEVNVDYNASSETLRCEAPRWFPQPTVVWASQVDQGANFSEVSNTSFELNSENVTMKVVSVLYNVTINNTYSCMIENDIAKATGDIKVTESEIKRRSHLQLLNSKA

B1: CL7 (antibody, V domains shown)
VH: EVQLLESGGGLVQPGGSLRLSCAASGFTFSRYAMSWVRQAPGKGLEWVSAISGSGGSTYYADSVKGRFTISRDNSKNTLYLQMNSLRAEDTAVYYCARSSQGIFDIWGQGTLVTVSS
VL: QSVLTQPPSASGTPGQRVTISCSGNNIGTRRVHWYQQLPDTAPKLLIYSKNNRPSGVPDRFSGSKSGTSASLAISGLRSEDEADYYCAAWDDSLSGPVFGGGTKLTVL
notes: VH3VL1 phage library clone; also called anti-CD300c monoclonal antibody CL7; CB301 antibody CL7
B2: CL10 (antibody, V domains shown)
VH: EVQLLESGGGLVQPGGSLRLSCAASGFTFSSYGMHWVRQAPGKGLEWVSAISGSGGSTYYADSVKGRFTISRDNSKNTLYLQMNSLRAEDTAVYYCASGYGLMDVWGQGTLVTVSS
VL: QSVLTQPPSASGTPGQRVTISCTRSSGIIASNYVQWYQQLPGTAPKLLIYRNNQRPSGVPDRFSGSKSGTSASLAISGLRSEDEADYYCSSYAGNNNLVFGGGTKLTVL
B3: SL18 (antibody, V domains shown)
VH: RVQLLESGGGLVQPGGSLRLSCAASGFTFSDYHMHWVRQAPGKGLEWVSTISSSGGYTYYAESVKSRFTISRDNSKNTLYLQMNSLRAEDTAVYYCARSIRLPLDYWGQGTLVTVSS
VL: QSVLTQPPSASGTPGQRVTISCSGNNIGSKGVHWYQQLPGTAPKLLIYEDSKRPSGVRDRFSGSKSGTSASLAISGLRSEDEADYYCQSYDSTKGVVFGGGTKLTVL

How the values were obtained:
mouse CD300c antigen = target: T1, mouse CD300c antigen; test: cell-based or functional assay
[1] = target: T2, CD276[B7-H3] (Sino Biological); test: binding ELISA, antigens coated at 8 ug/mL, HRP anti-Fc IgG, O.D 450 nm
Description: (§1) Binding ELISA was performed to identify that the anti-CD300c monoclonal antibody CL7 specifically binds only to CD300c without binding to other B7 family proteins. More specifically, each of CD300c antigen, CD300a antigen, or seven B7 family protein antigens (PD-L1 [B7-H1] (Sino Biological), ICOS Ligand[B7-H2] (Sino Biological), CD276[B7-H3] (Sino Biological), B7-H4 (Sino Biological), CD80[B7-1] (Sino Biological), CD86[B7-2] (Sino Biological), CD273[PD-L2] (Sino Biological)) in a coating buffer (0.1 M sodium carbonate, pH 9.0) was coated on an ELISA plate at a concentration of 8 μg/mL per well, and then incubation was performed at 2° C. to 8° C. overnight so that the antigen bound to the plate. The unbound antigen was removed by performing washing with PBST three times, and then […] of blocking buffer (5% skim milk in PBST) was added to each well. Subsequently, blocking was performed at room temperature for 1 hour, and then washing was performed again with PBST. Thereafter, CL7 was diluted in quadruplicate with PBS, and subjected to reaction with the antigen at room temperature for 1 hour for antigen binding. 1 hour later, washing with PBST was performed three times. Then, a secondary antibody (HRP-conjugated anti-Fc IgG) diluted to 4 μg/mL in blocking buffer was added thereto, and reaction was allowed to proceed at room temperature for 1 hour. Subsequently, the unbound antibody for detection was removed using PBST, and then a TMB solution was added thereto. Reaction was allowed to proceed for 10 minutes for development. Then, 2 N sulfuric acid solution was added to terminate the development, and the absorbance was measured at 450 nm to identify the antibody that specifically binds to the CD300c antigen.

[2] = target: T3, CD273[PD-L2] (Sino Biological); test: as above
Description: as §1

[3] = target: PD-L1 [B7-H1] (Sino Biological) (UniProt Q9NZQ7 19-239, limits assumed); test: as above
Description: as §1

[4] = target: T4, CD80[B7-1] (Sino Biological); test: as above
Description: as §1

[5] = target: T5, CD300a antigen (12449-H08H, Sino …); test: as above
Description: as §1

[6] = target: T6, ICOS Ligand[B7-H2] (Sino Biological); test: as above
Description: as §1

[7] = target: T7, CD86[B7-2] (Sino Biological); test: as above
Description: as §1

B7-H4 (Sino Biological) = target: T8, B7-H4 (Sino Biological); test: as above
Description: as §1

Sequence of PD-L1 [B7-H1] (Sino Biological) (Q9NZQ7 19-239 limits assumed): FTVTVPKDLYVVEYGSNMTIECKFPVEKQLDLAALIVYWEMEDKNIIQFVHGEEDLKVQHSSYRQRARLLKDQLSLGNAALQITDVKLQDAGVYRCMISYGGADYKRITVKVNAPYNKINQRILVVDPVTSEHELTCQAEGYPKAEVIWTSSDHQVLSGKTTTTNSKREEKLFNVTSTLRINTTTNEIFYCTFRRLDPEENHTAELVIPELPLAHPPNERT

Binder | cancer cell proliferation inhibitory effect on CT26 mouse colorectal cancer cells (CCK-8, 10 ug/mL antibody, 5 days), higher than the control group (mouse CD300c antigen) [%] | binding result [1] | binding result [2] | binding result [3] | binding result [4] | binding result [5] | binding result [6] | binding result [7] | binding result (B7-H4 (Sino Biological))
B1 | 66 | no binding (tested: log10 about 0.4 (about 2.5 ug/ml)) | no binding (tested: log10 about 0.4 (about 2.5 ug/ml)) | no binding (tested: log10 about 0.4 (about 2.5 ug/ml)) | no binding (tested: log10 about 0.4 (about 2.5 ug/ml)) | no binding (tested: log10 about 0.4 (about 2.5 ug/ml)) | no binding (tested: log10 about 0.4 (about 2.5 ug/ml)) | no binding (tested: log10 about 0.4 (about 2.5 ug/ml)) | no binding (tested: log10 about 0.4 (about 2.5 ug/ml))
B2 | 15 |  |  |  |  |  |  |  | 
B3 | 38 |  |  |  |  |  |  |  | 
